Assay results published in the supplement of paper PMC11246515.
± gives the standard deviation of the averaged measurements.

Assay: total protein half-life in vivo (active degradation + dilution); higher = more stable protein
[1] = E. coli NCM3722 delta-clpP delta-lon delta-hslV, growth: N-lim chemostat, doubling time 6 h
[2] = E. coli NCM3722 delta-clpP, growth: N-lim chemostat, doubling time 6 h
[3] = E. coli NCM3722 delta-hslV, growth: N-lim chemostat, doubling time 6 h
[4] = E. coli NCM3722 delta-lon, growth: N-lim chemostat, doubling time 6 h
[5] = E. coli NCM3722 delta-smpB, growth: N-lim chemostat, doubling time 6 h
[6] = wild type E. coli NCM3722, growth: C-lim chemostat, doubling time 3 h
[7] = wild type E. coli NCM3722, growth: C-lim chemostat, doubling time 6 h
[8] = wild type E. coli NCM3722, growth: C-lim chemostat, doubling time 12 h
[9] = wild type E. coli NCM3722, growth: N-lim chemostat, doubling time 6 h
[10] = wild type E. coli NCM3722, growth: N-lim chemostat, doubling time 12 h
[11] = wild type E. coli NCM3722, growth: P-lim chemostat, doubling time 6 h
[12] = wild type E. coli NCM3722, growth: P-lim chemostat, doubling time 12 h

Row | Sequence | total protein half-life in vivo [1] | total protein half-life in vivo [2] | total protein half-life in vivo [3] | total protein half-life in vivo [4] | total protein half-life in vivo [5] | total protein half-life in vivo [6] | total protein half-life in vivo [7] | total protein half-life in vivo [8] | total protein half-life in vivo [9] | total protein half-life in vivo [10] | total protein half-life in vivo [11] | total protein half-life in vivo [12]
1 | MHNQAPIQRRKSTRIYVGNVPIGDGAPIAVQSMTNTRTTDVEATVNQIKALERVGADIVRVSVPTMDAAEAFKLIKQQVNVPLVADIHFDYRIALKVAEYGVDCLRINPGNIGNEERIRMVVDCARDKNIPIRIGVNAGSLEKDLQEKYGEPTPQALLESAMRHVDHLDRLNFDQFKVSVKASDVFLAVESYRLLAKQIDQPLHLGITEAGGARSGAVKSAIGLGLLLSEGIGDTLRVSLAADPVEEIKVGFDILKSLRIRSRGINFIACPTCSRQEFDVIGTVNALEQRLEDIITPMDVSIIGCVVNGPGEALVSTLGVTGGNKKSGLYEDGVRKDRLDNNDMIDQLEARIRAKASQLDEARRIDVQQVEK | 4.85 ± 0.2 h | 2.41 ± 0.11 h | 3.23 ± 0.18 h | 3.18 ± 0.078 h | 2.88 ± 0.19 h | 2.61 ± 0.25 h | 4.69 ± 0.24 h | 7.78 ± 0.65 h | 3.05 ± 0.092 h | 4.29 ± 0.3 h | 4.01 ± 0.28 h | 7.02 ± 0.51 h
2 | MHRQSFFLVPLICLSSALWAAPATVNVEVLQDKLDHPWALAFLPDNHGMLITLRGGELRHWQAGKGLSAPLSGVPDVWAHGQGGLLDVVLAPDFAQSRRIWLSYSEVGDDGKAGTAVGYGRLSDDLSKVTDFRTVFRQMPKLSTGNHFGGRLVFDGKGYLFIALGENNQRPTAQDLDKLQGKLVRLTDQGEIPDDNPFIKESGARAEIWSYGIRNPQGMAMNPWSNALWLNEHGPRGGDEINIPQKGKNYGWPLATWGINYSGFKIPEAKGEIVAGTEQPVFYWKDSPAVSGMAFYNSDKFPQWQQKLFIGALKDKDVIVMSVNGDKVTEDGRILTDRGQRIRDVRTGPDGYLYVLTDESSGELLKVSPRN | 1.95 ± 0.037 h | 2.22 ± 1.1 h | 1.44 ± 0.036 h |  | 1.43 ± 0.033 h | 1.63 ± 0.43 h | 4.09 h | 5.83 ± 1.6 h | 2.13 h |  |  | 6.77 h
3 | MHSERAPFFLKLAAWGGVVFLHFPILIIAAYAFNTEDAAFSFPPQGLTLRWFSVAAQRSDILDAVTLSLKVAALATLIALVLGTLAAAALWRRDFFGKNAISLLLLLPIALPGIVTGLALLTAFKTINLEPGFFTIVVGHATFCVVVVFNNVIARFRRTSWSLVEASMDLGANGWQTFRYVVLPNLSSALLAGGMLAFALSFDEIIVTTFTAGHERTLPLWLLNQLGRPRDVPVTNVVALLVMLVTTLPILGAWWLTREGDNGQ [P0AFR9] | 6.7 h |  |  |  |  |  |  |  |  |  |  | 
4 | MHSQIWVVSTLLISIVLIVLTIVKFKFHPFLALLLASFFVGTMMGMGPLDMVNAIESGIGGTLGFLAAVIGLGTILGKMMEVSGAAERIGLTLQRCRWLSVDVIMVLVGLICGITLFVEVGVVLLIPLAFSIAKKTNTSLLKLAIPLCTALMAVHCVVPPHPAALYVANKLGADIGSVIVYGLLVGLMASLIGGPLFLKFLGQRLPFKPVPTEFADLKVRDEKTLPSLGATLFTILLPIALMLVKTIAELNMARESGLYILVEFIGNPITAMFIAVFVAYYVLGIRQHMSMGTMLTHTENGFGSIANILLIIGAGGAFNAILKSSSLADTLAVILSNMHMHPILLAWLVALILHAAVGSATVAMMGATAIVAPMLPLYPDISPEIIAIAIGSGAIGCTIVTDSLFWLVKQYCGATLNETFKYYTTATFIASVVALAGTFLLSFII |  |  |  |  | 4.91 h |  | 5.8 h | 11.9 h |  | 9.38 h |  | 
5 | MHVTAKPSSFQCNLKCDYCFYLEKESQFTHEKWMDDSTLKEFIKQYIAASGNQVYFTWQGGEPTLAGLDFFRKVIHYQQRYAGQKRIFNALQTNGILLNNEWCAFLKEHEFLVGISIDGPQELHDRYRRSNSGNGTFAKVIAAIERLKSYQVEFNTLTVINNVNVHYPLEVYHFLKSIGSKHMQFIELLETGTPNIDFSGHSENTFRIIDFSVPPTAYGKFMSTIFMQWVKNDVGEIFIRQFESFVSRFLGNGHTSCIFQESCKDNLVVESNGDIYECDHFVYPQYKIGNINKSELKTMNSVQLTAQKKRIPAKCQQCAYKPICNGGCPKHRITKVNNETVSYFCEGYKILFSTMVPYMNAMVELAKNRVPLYHIMDVAKQMENN |  |  |  |  |  | 1.12 ± 0.083 h | 1.77 ± 0.19 h | 2.03 h |  |  |  | 
6 | MHWQTHTVFNQPIPLNNSNLYLSDGALCEAVTREGAGWDSDFLASIGQQLGTAESLELGRLANVNPPELLRYDAQGRRLDDVRFHPAWHLLMQALCTNRVHNLAWEEDARSGAFVARAARFMLHAQVEAGSLCPITMTFAATPLLLQMLPAPFQDWTTPLLSDRYDSHLLPGGQKRGLLIGMGMTEKQGGSDVMSNTTRAERLEDGSYRLVGHKWFFSVPQSDAHLVLAQTAGGLSCFFVPRFLPDGQRNAIRLERLKDKLGNRSNASCEVEFQDAIGWLLGLEGEGIRLILKMGGMTRFDCALGSHAMMRRAFSLAIYHAHQRHVFGNPLIQQPLMRHVLSRMALQLEGQTALLFRLARAWDRRADAKEALWARLFTPAAKFVICKRGMPFVAEAMEVLGGIGYCEESELPRLYREMPVNSIWEGSGNIMCLDVLRVLNKQAGVYDLLSEAFVEVKGQDRYFDRAVRRLQQQLRKPAEELGREITHQLFLLGCGAQMLKYASPPMAQAWCQVMLDTRGGVRLSEQIQNDLLLRATGGVCV | 4.81 ± 0.12 h | 4.91 ± 0.18 h | 5.583 ± 0.035 h | 4.72 ± 0.15 h | 5.28 ± 0.11 h | 3.296 ± 0.026 h | 5.91 ± 0.25 h | 11.3 ± 0.59 h | 5.18 ± 0.13 h | 11.5 ± 0.84 h | 6.51 ± 0.25 h | 11.5 ± 0.058 h
7 | MIAEFESRILALIDGMVDHASDDELFASGYLRGHLTLAIAELESGDDHSAQAVHTTVSQSLEKAIGAGELSPRDQALVTDMWENLFQQASQQ | 4.91 ± 0.31 h | 3.35 ± 0.41 h | 2.9 ± 0.23 h | 3.81 ± 0.062 h | 2.1 ± 0.046 h | 2.2 ± 0.23 h | 3.39 ± 0.1 h | 4.87 ± 0.25 h | 2.71 ± 0.54 h | 3.79 h | 2.75 ± 0.83 h | 4.58 ± 0.62 h
8 | MIAITGATGQLGHYVIESLMKTVPASQIVAIVRNPAKAQALAAQGITVRQADYGDEAALTSALQGVEKLLLISSSEVGQRAPQHRNVINAAKAAGVKFIAYTSLLHADTSPLGLADEHIETEKMLADSGIVYTLLRNGWYSENYLASAPAALEHGVFIGAAGDGKIASATRADYAAAAARVISEAGHEGKVYELAGDSAWTLTQLAAELTKQSGKQVTYQNLSEADFAAALKSVGLPDGLADMLADSDVGASKGGLFDDSKTLSKLIGHPTTTLAESVSHLFNVNN | 5.42 ± 0.13 h | 4.93 ± 0.067 h | 4.99 ± 0.61 h | 5.3 ± 0.25 h | 4.569 ± 0.035 h | 3.2 ± 0.18 h | 5.84 ± 0.31 h | 8.9 ± 2 h | 5.15 ± 0.28 h | 8.33 h | 6.72 ± 0.65 h | 13.1 ± 1.4 h
9 | MICRFIDTHCHFDFPPFSGDEEASLQRAAQAGVGKIIVPATEAENFARVLALAENYQPLYAALGLHPGMLEKHSDVSLEQLQQALERRPAKVVAVGEIGLDLFGDDPQFERQQWLLDEQLKLAKRYDLPVILHSRRTHDKLAMHLKRHDLPRTGVVHGFSGSLQQAERFVQLGYKIGVGGTITYPRASKTRDVIAKLPLASLLLETDAPDMPLNGFQGQPNRPEQAARVFAVLCELRREPADEIAQALLNNTYTLFNVP | 5.92 ± 0.41 h | 4.26 ± 0.21 h | 4.72 ± 0.12 h | 6.38 ± 1.4 h | 4.45 ± 0.36 h | 3.12 ± 0.34 h | > 8 h | 9.45 ± 4.5 h | 4.57 ± 0.41 h | 8.41 ± 1.9 h |  | 12.3 ± 0.15 h
